Target: Langya virus fusion protein (LayV-F) ectodomain, uncleaved (Langya virus)
Assay: cryo-EM structure

Langya virus fusion protein (LayV-F) ectodomain, uncleaved (domain or fragment)
stoichiometry N: 3
